We go through one substance from article PMC10882061.

In this assay the target is Env-K, stabilized HIV Env trimer of BG505 NFL2P gp140 with a C-terminal Peptide K (HIV-1 (BG505)). Put plainly: SEC; Sephacryl S-300 after lectin affinity; peaks of aggregates, trimers and monomers; pooled trimer fractions also run on BN-PAGE.

For the substance “Env-K, stabilized HIV Env trimer of BG505 NFL2P gp140 with a C-terminal Peptide K”, the stoichiometry N is 3.

Broadly, the stoichiometry N is a count of units in the complex or per binding partner.
